Test results as given in paper PMC12368724 (2025).

Target: GH1 β-glucosidase from Spodoptera frugiperda (Sfβgly), wild-type (Spodoptera frugiperda)
Assay: P100 buffer, pH 6, 5°C, protein sample 3 (SEC)

B1: GH1 β-glucosidase from Spodoptera frugiperda (Sfβgly), wild-type (enzyme)
chain: QQRRFPDDFLFGTATASYQIEGAWDEDGKGENIWDYMVHNTPEVIRDLSNGDIAADSYHNYKRDVEMMRELGLDAYRFSLSWARILPTGMANEVNPAGIAFYNNYIDEMLKYNITPLITLYHWDLPQKLQELGGFANPLISDWFEDYARVVFENFGDRVKMFITFNEPREICFEGYGSATKAPILNATAMGAYLCAKNLVTAHAKAYYLYDREFRPVQGGQCGITISVNWFGPATPTPEDEMAAELRRQGEWGIYAHPIFSAEGGFPKELSDKIAEKSAQQGYPWSRLPEFTEEEKAFVRGTSDFFGVNHYTAFLVSATERKGPYPVPSLLDDVDTGSWADDSWLKSASAWLTLAPNSIHTALTHLNNLYNKPVFYITENGWSTDESRENSLIDDDRIQYYRASMESLLNCLDDGINLKGYMAWSLMDNFEWMEGYIERFGLYEVDFSDPARTRTPRKAAFVYKHIIKHRVVDYEYEPETMVMTIDEGH
modifications: Monomer given, self-associates to a C2 homodimer. Limits by convention from the 5CG0 entity; paper numbering = entity + 20 (precursor numbering) Monomer given, self-associates to a C2 homodimer. Limits by convention from the 5CG0 entity; paper numbering = entity + 20 (precursor numbering)
  Kd: 5.5 µM
